Results reported in patent US20250325680A1, “HIGH-PERMEABILITY PROTEIN OR POLYPEPTIDE CONJUGATE AND USE THEREOF” (Hangzhou Tito Biotechnology Partnership Enterprise ( …, priority 2023, published 2025).

Assays:
[1] = Skin permeation experiment; type: in vivo, C57BL/6 mice; conditions: mouse dorsal skin, 4 h after administration, laser confocal
Description: C57BL/6 mice each with a body weight of 20 g were selected and randomly divided into four groups. The hair on the back of each mouse was removed with a depilatory cream. After 24 h of raising, a silicone diffusion cell was fixed on the back, and Cy5-labeled ^Cy5BSA and ^Cy5BSA-OPDMA were added at equal amounts. 4 h after the administration, the dorsal skin of each mouse was carefully collected, rinsed 3 times with PBS, and sectioned by a freezing microtome to produce 20 μm-thick skin sections. A skin permeation effect of each solution was observed under a laser scanning confocal microscope.

[2] = Intraocular permeation experiment after eye-dropping administration; type: in vivo; conditions: mouse, 4 h, laser confocal imaging of eyeball sections
Description: 6.6 mg of BSA ([…]) was dissolved in 1 mL of PBS at pH 7.4, 66 μg of a fluorescent dye Cy5-NHS was added, and stirring was conducted for 6 h at room temperature. Ultrafiltration-washing was repeated multiple times to produce fluorescently-labeled ^Cy5BSA. The conjugate ^Cy5BSA-OPDMA and other protein conjugates were labeled by the same method.
Upper and lower eyelids of each mouse were gently pulled open with a cotton swab. Solutions of ^Cy5BSA and ^Cy5BSA-OPDMA in PBS each were dropped to a conjunctival sac of a mouse, and a few seconds later, eyelids were slowly closed. At 4 h after the eye-dropping administration, eyeballs were immediately collected, washed three times with PBS, fixed overnight in an FAS eyeball fixative solution, and then transferred to a 30% sucrose solution for dehydration. When sank to a bottom of the solution, eyeballs were carefully taken out, embedded with an optimal cutting temperature (OCT) embedding medium, and sectioned by a freezing microtome to produce 10 μm-thick eyeball sections. The eyeball sections were stained with a 4′,6-diamidino-2-phenylindole (DAPI) dye, and finally the fluorescence distributions of each solution in eyeballs and retinas were observed under a laser scanning confocal microscope. The fluorescence distribution inside a retina of a mouse eyeball was analyzed with Image J.

[3] = test system: CT26 tumor spheres; assay: Permeation in multicellular tumor spheres; type: cell-based; conditions: BSA 20 μg/mL, 2 h incubation
Description: The permeability of albumin and a conjugate BSA-OPDMA thereof was verified with multicellular tumor spheres. 1.0 mL of DMEM and the prepared CT26 tumor spheres were added to a confocal imaging dish, and then 20 μL of ^Cy5BSA-OPDMA or ^Cy5BSA was added (where a concentration of BSA was 20 μg/mL). After being incubated for 2 h, tumor spheres were subjected to laser scanning confocal microscopy imaging every 20 μm along a Z-axis. […] Moreover, the more the OPDMA bonded, the stronger the promotion on the permeability of BSA. […] OPDMA with a molecular weight of 10 k could more efficiently promote the penetration of ^Cy5BSA than OPDMA with a molecular weight of 5 k. This conclusion was further confirmed by the quantitative fluorescence data in FIG. 13.

[4] = test system: laser-induced CNV model; assay: Laser-induced choroidal neovascularization (CNV) model, eye drops; type: in vivo, C57BL/6J mice; conditions: eye drops 2 μL, 10 mg/ml of aflibercept, four times a day for 7 d, day 7
Source text: 40 female C57BL/6J mice at 6 to 8 weeks were selected, and the anterior segments of both eyes and the fundus were examined to be normal before the experiment. An unilateral eye of each mouse was selected and subjected to laser photocoagulation to establish a CNV model, where a corresponding contralateral eye was not treated. Then treated mice were randomly divided into a PBS group, an aflibercept-OPDMA conjugate group, an OPDMA+aflibercept mixture group, and an aflibercept intravitreal injection group. Immediately after the laser photocoagulation, mice in each group were administered with eye drops at a dose of (2 μL, 10 mg/ml of aflibercept) four times a day consecutively for 7 d. For the injection group, a dose was 10 μg/mouse, and the injection was conducted merely once during the experiment. After laser photocoagulation, on day 7 post-modeling, choroidal flat mounts were prepared from the experimental eyes. The flat mounts were subjected to antibody staining using IB4 and imaged under a fluorescence microscope. Thee neovascularization area was measured using image J software. These indices were used to assess the treatment efficacy of each group.

aflibercept: the protein (aflibercept) itself
skin permeation effect (fluorescence in skin sections) [1]: cannot permeate into the skin

^Cy5BSA-OPDMA: Cy5-labeled conjugate of BSA with OPDMA; chain number and weight not stated in the text
intraocular permeation (fluorescence distribution in eyeballs and retinas) [2]: could penetrate into intraocular cells, especially a retina in a posterior segment of an eye | skin permeation effect (fluorescence in skin sections) [1]: the fluorescence could penetrate into the deep skin | permeation in tumor spheres (fluorescence) [3]: presented a strong red fluorescence within tumor spheres

^Cy5BSA: BSA fluorescently labeled with Cy5-NHS [reference compound]
intraocular permeation (fluorescence distribution in eyeballs and retinas) [2]: only adhered to a surface of an eyeball | skin permeation effect (fluorescence in skin sections) [1]: faint red fluorescence was observed merely in a surface layer of the skin | permeation in tumor spheres (fluorescence) [3]: could only reach the edges of tumor spheres

aflibercept-OPDMA: conjugate of aflibercept with tertiary amine oxide polymer OPDMA
therapeutic effect on CNV (neovascularization area) [4]: could indeed exert a therapeutic effect after being dropped to eyes | therapeutic effect on CNV (neovascularization area) ([4]; listed as aflibercept-OPDMA conjugate): prominent therapeutic effect | intraocular permeation (fluorescence distribution in eyeballs and retinas) [2]: had a similar intraocular permeation ability
